Test results taken from publication doi:10.1101/2022.09.26.509487, “DNA methylation at a single cytosine embedded in the W-box cis-element repels binding of WRKY transcription factors through steric hindrance”.

T1: AtWRKY40 DBD (Arabidopsis thaliana, UniProt Q9SAH7 131-207)
T1 sequence: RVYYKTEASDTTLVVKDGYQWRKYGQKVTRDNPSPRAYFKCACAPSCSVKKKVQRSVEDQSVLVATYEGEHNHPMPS

B1: RLP43 W-box, unmethylated (dsDNA)
DNA 1: CGTAGGGTCAAGCTGT
DNA 2: ACAGCTTGACCCTACG
B2: RLP43 W-box 5mC4 (dsDNA)
DNA 1: CGTAGGGTCAAGCTGT
DNA 2: ACAGCTTGACCCTACG
modifications: 5-methyl-dC at forward strand position 9 (W-box C4)
B3: RLP43 W-box 5mC4 + 5mC1 5mC2 (dsDNA)
DNA 1: CGTAGGGTCAAGCTGT
DNA 2: ACAGCTTGACCCTACG
modifications: 5-methyl-dC at forward position 9 (C4) and reverse positions 10 and 11 (C2, C1)

molecular target: T1, AtWRKY40 DBD; assay: BLI; steady state; BLI (Octet RED96e, SA sensors): 50 mM Hepes pH 7, 150 mM NaCl, 0.05% Tween20, 25 C, 1000 rpm; duplex loaded at 40 nM, protein 0.25-10 uM; conditions: protein: recombinant; tags: N-terminal 6xHis (pET28a); label: biotin on forward strand (printed at 5' end); blunt

Row | Binder | Kd [µM]
1 | B1 | 0.63
2 | B2 | 12
3 | B3 | 9.2
